Residue numbers refer to the chain shown, from its start.
B1: OmaVH15G55H - VL3D28H (antibody, V domains shown)
VH: EVQLVESGGGLVQPGGSLRLSCAVSGYSITSGHRWEWIRQAPGKGLEWVASIHYDHSTNYNPSVKGRITISRDDSKNTFYLQMNSLRAEDTAVYYCARATHYFGHWHFAVWGQGTLVTVSS
VL: DIQLTQSPSSLSASVGDRVTITCRASQSVDYHGDSYMNWYQQKPGKAPKLLIEWGSYLRSGVPSRFSGSGSGTDFTLTISSLQPEDFATYYCQQNAEDPYTFGQGTKVEIK
notes: also called OmaVH15G55H VL3D25H
B2: OMA VH15 - VL3S31H (antibody, V domains shown)
VH: B1 VH with H56G
VL: B1 VL with H32D, S35H
B3: OMA VH15 - VL3D28H (antibody, V domains shown)
VH: B1 VH with H56G
VL: B1 VL
notes: also called OMA VH15 VL3D25H
B4: Oma VH15W100b - VL3S31H (antibody, V domains shown)
VH: B1 VH with H56G, W106H
VL: B1 VL with H32D, S35H
B5: OmaVH15G55H - VL3 (antibody, V domains shown)
VH: B1 VH
VL: B1 VL with H32D
B6: OmaVH15G55HW100b - VL3S31H (antibody, V domains shown)
VH: B1 VH with W106H
VL: B1 VL with H32D, S35H
B7: OmaVH15G55H - VL3S31H (antibody, V domains shown)
VH: B1 VH
VL: B1 VL with H32D, S35H
B8: OmaVH15G55H - VL3D28HS31H (antibody, V domains shown)
VH: B1 VH
VL: B1 VL with S35H
B9: Oma VH15W100b - VL3D28HS31H (antibody, V domains shown)
VH: B1 VH with H56G, W106H
VL: B1 VL with S35H
B10: OMA VH15 - VL3D28HS31H (antibody, V domains shown)
VH: B1 VH with H56G
VL: B1 VL with S35H
B11: Oma VH15W100b - VL3D28H (antibody, V domains shown)
VH: B1 VH with H56G, W106H
VL: B1 VL
notes: also called Oma VH15W100b VL3D25H
B12: OMA VH15 - VL3 (antibody, V domains shown)
VH: B1 VH with H56G
VL: B1 VL with H32D
B13: CL-2C mAb 27 (antibody, V domains shown)
VH: QVQLVQSGAEVMKPGSSVKVSCKASGYTFSWYHLEWVRQAPGHGLEWMGEIDPGTFTTNYNEKFKARVTFTADTSTSTAYMELSSLRSEDTAVYYCARFSHFSGSNHDYFDYWGQGTLVTVSS
VL: EIVMTQSPATLSVSPGERATLSCRASQSIGTNIHWYQQKPGQAPRLLIYHASESISGIPARFSGSGSGTEFTLTISSLQSEDFAVYYCQQSWSWPTTFGGGTKVEIK
notes: also called VK50H + VH33H100CH
B14: CL-2C mAb 33 (antibody, V domains shown)
VH: B13 VH with N106H, H107Y
VL: B13 VL with H50Y, W94H
notes: also called VK94H + VH33H100BH
B15: CL-2C mAb 30 (antibody, V domains shown)
VH: B13 VH with H33W, H107Y
VL: B13 VL
notes: also called VK50H + VHWT
B16: CL-2C mAb 39 (antibody, V domains shown)
VH: B13 VH with S105H, H107Y
VL: B13 VL with H50Y
notes: also called VKWT + VH33H100AH
B17: CL-2C mAb 28 (antibody, V domains shown)
VH: B13 VH with N106H, H107Y
VL: B13 VL
notes: also called VK50H + VH33H100BH
B18: CL-2C mAb 38 (antibody, V domains shown)
VH: B13 VH with N106H, H107Y
VL: B13 VL with H50Y
notes: also called VKWT + VH33H100BH
B19: CL-2C mAb 34 (antibody, V domains shown)
VH: B13 VH with S105H, H107Y
VL: B13 VL with H50Y, W94H
notes: also called VK94H + VH33H100AH
B20: CL-2C mAb 29 (antibody, V domains shown)
VH: B13 VH with S105H, H107Y
VL: B13 VL
notes: also called VK50H + VH33H100AH
B21: CL-2C mAb 32 (antibody, V domains shown)
VH: B13 VH
VL: B13 VL with H50Y, W94H
notes: also called VK94H + VH33H100CH
B22: CL-2C mAb 36 (antibody, V domains shown)
VH: B13 VH with H33W, N59H, N106H, H107Y
VL: B13 VL with H50Y
notes: also called VKWT + VH58H100BH
B23: CL-2C mAb 40 (antibody, V domains shown)
VH: B13 VH with H33W, H107Y
VL: B13 VL with H50Y
notes: also called VKWT + VHWT
B24: CL-2C mAb 35 (antibody, V domains shown)
VH: B13 VH with H33W, H107Y
VL: B13 VL with H50Y, W94H
notes: also called VK94H + VHWT
B25: CL-2C mAb 31 (antibody, V domains shown)
VH: B13 VH with H33W, N59H, N106H, H107Y
VL: B13 VL with H50Y, W94H
notes: also called VK94H + VH58H100BH
B26: OmaVH15G55HW100b - VL3D28HS31H (antibody, V domains shown)
VH: B1 VH with W106H
VL: B1 VL with S35H
notes: human IgG1

biological target: T1, human immunoglobulin E (hIgE) (human, UniProt P01854-1 1-428); assay: SPR (Biacore)
T1 construct: also called human IgE; Native IgE (Abcam)
T1 sequence (P01854 whole entry): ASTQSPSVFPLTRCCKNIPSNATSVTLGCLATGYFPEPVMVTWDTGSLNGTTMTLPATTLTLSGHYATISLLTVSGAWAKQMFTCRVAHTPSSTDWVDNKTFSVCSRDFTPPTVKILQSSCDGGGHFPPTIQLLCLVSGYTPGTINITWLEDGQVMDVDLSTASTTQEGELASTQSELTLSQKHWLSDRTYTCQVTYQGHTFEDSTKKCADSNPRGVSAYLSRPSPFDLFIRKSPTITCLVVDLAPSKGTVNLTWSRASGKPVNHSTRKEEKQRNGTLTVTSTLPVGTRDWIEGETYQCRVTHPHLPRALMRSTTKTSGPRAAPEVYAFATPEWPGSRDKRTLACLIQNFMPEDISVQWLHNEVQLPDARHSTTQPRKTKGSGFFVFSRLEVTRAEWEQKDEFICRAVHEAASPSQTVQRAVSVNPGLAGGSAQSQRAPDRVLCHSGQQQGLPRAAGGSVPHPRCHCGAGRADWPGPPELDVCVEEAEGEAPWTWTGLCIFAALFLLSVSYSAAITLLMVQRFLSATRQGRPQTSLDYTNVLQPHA

Binder	Ratio pH 7.4/pH6.0 (of KD)
B1	6
B2	16.7
B3	15.6
B4	31.1
B5	5.6
B6	20.3
B7	6.8
B8	6.4
B9	23.5
B10	11.7
B11	7.5

biological target: T2, recombinant Motavizumab human IgE (rMota-hIgE) (human, UniProt P01854 1-428); assay: hIgE binding ELISA
T2 construct: also called Recombinant IgE (argenx)
T2 sequence (P01854 other isoform, or with tags, fused parts or gaps limits assumed, form in doubt): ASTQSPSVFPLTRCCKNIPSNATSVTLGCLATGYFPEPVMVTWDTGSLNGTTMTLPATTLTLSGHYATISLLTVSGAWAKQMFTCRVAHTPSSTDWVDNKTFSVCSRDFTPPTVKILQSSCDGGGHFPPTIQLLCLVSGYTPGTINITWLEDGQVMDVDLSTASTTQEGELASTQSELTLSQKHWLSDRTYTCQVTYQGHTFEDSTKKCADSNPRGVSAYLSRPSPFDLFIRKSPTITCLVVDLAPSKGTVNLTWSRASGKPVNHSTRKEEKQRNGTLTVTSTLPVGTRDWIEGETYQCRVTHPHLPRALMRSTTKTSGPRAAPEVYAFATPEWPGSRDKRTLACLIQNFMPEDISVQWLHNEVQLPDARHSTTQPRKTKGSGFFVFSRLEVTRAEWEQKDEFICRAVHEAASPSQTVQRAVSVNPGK
Method: (§1) Briefly a Maxisorp plate was coated with recombinant human respiratory syncytial virus protein F (RSV-F) (0.5 μg/mL), then blocked with PBS with 3% BSA and 0.05% Tween. […] After several washing steps at pH 7.4 or pH 5.5, detection of the bound mAbs was carried out with an anti-human Fc-HRP antibody.

Binder	Ratio EC50 pH 5.5/7.4	Ratio EC50 pH 7.4/5.5
B12	1.1	0.93
B1	0.9	1.05
B2	0.9	1.12
B3	1	0.99
B5	0.9	1.16
B7	1.5	0.67
B8	1.5	0.67
B10	1.2	0.86

biological target: T1, human immunoglobulin E (hIgE); assay: SPR (Biacore) on hIgE
Method: The ratio of KD measured at pH 5.5 versus KD measured at pH 7.4 was calculated for each of the CL-2C antibodies.

Binder	KD Ratio pH 5.5/pH 7.4
B13	7.4
B14	7
B15	1
B16	4.6
B17	9
B18	6.5
B19	3
B20	3.8
B21	6.2
B22	4.3
B23	0.6
B24	0.6
B25	5.5

biological target: T1, human immunoglobulin E (hIgE); assay: SPR (Biacore), pH 6.0

Binder	Kd [nM]	koff [s⁻¹]	kon [M⁻¹ s⁻¹]
B12	1.03	0.00029	281000
B1	4.39	0.00117	265000
B2	8.93	0.00228	261000
B3	2.62	0.000736	281000
B4	190	0.0375	206000
B5	1.8	0.000524	291000
B6	312	0.0986	243000
B7	9.07	0.00297	329000
B8	16.1	0.00527	326000
B9	206	0.0895	453000
B10	12.8	0.00398	310000
B11	64.5	0.0148	232000

biological target: T1, human immunoglobulin E (hIgE); assay: SPR (Biacore), pH 7.4

Binder	Kd [nM]	koff [s⁻¹]	kon [M⁻¹ s⁻¹]
B12	< 0.0769	< 1e-05	130000
B1	0.728	0.000206	283000
B2	0.534	0.000166	310000
B3	0.168	4.41e-05	264000
B4	6.12	0.00244	398000
B5	0.326	0.000105	323000
B6	15.4	0.00391	253000
B7	1.33	0.000402	301000
B8	2.52	0.000722	286000
B9	8.78	0.00251	290000
B26		0.00356	
B10	1.1	0.000334	302000
B11	8.59	0.00182	213000

biological target: T2, recombinant Motavizumab human IgE …; assay: hIgE binding ELISA, pH 5.5
Method: as §1

Binder	EC50 [µg/mL]
B12	0.0217
B1	0.0251
B2	0.0179
B3	0.0164
B5	0.022
B7	0.023
B8	0.023
B10	0.0178

biological target: T2, recombinant Motavizumab human IgE …; assay: hIgE binding ELISA, pH 7.4
Method: as §1

Binder	EC50 [µg/mL]
B12	0.0202
B1	0.0264
B2	0.02
B3	0.0163
B4	0.0152
B5	0.0255
B6	0.0191
B7	0.0153
B8	0.0154
B9	0.0156
B10	0.0153
B11	0.015

biological target: T1, human immunoglobulin E (hIgE); assay: competition ELISA, hIgE to hFcεRIα

Binder	IC50 [nM]
B12	0.0803
B1	0.187
B2	0.206
B3	0.137
B5	0.0753
B6	446
B7	0.485
B8	2.63
B9	585
B26	9.49
B10	0.722
B11	35
